Data from patent US20190284289A1 (Eli Lilly, published 2019).

Key:
rat RANKL = biological target: T1, rat RANKL (rat, UniProt Q9ESE2 141-318, limits assumed); assay: SPR (BIAcore 2000), antibody captured on Protein A, RANKL as analyte, 25 C; rat RANKL
T1 construct: Construct not described
T1 sequence (looked up): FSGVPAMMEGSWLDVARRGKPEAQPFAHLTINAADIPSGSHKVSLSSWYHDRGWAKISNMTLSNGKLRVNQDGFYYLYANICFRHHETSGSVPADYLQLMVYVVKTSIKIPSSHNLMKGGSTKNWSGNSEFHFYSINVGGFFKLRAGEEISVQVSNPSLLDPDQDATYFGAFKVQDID

human RANKL [1] = biological target: T2, human RANKL (human, UniProt O14788 158-317, limits assumed); assay: cell-based or functional assay
T2 sequence: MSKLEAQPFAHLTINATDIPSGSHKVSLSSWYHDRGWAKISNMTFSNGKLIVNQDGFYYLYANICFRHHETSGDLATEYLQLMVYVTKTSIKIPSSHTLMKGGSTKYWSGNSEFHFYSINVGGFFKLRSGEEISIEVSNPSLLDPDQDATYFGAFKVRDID

human RANKL [2] = biological target: T2, human RANKL; assay: SPR (BIAcore 2000), antibody captured on Protein A, RANKL as analyte, 25 C; human RANKL
Method: The BIAcore® 2000 instrument is used to measure binding affinity. All measurements are performed at 25° C. 2 ug/mL of exemplified antibody of Example 1 is dissolved in HBS-EP buffer (150 mM sodium chloride, 3 mM EDTA, 0.005% (w/v) surfactant P-20, and 10 mM HEPES, pH7.4). Protein A is immobilized on flow cells 1 to 4 of a CM4 sensor chip at a level of 500 response units (Rus) using an amine coupling kit.
Binding is evaluated using multiple analytical cycles. Each cycle is performed at a flow rate of 20 uL/minute. About 10 uL of the exemplified antibody of Example 1, at a concentration of 2 ug/mL, is injected, aiming to capture about 100-200Rus; 250 uL of human RANKL (starting at 5 nM and using two-fold serial dilutions for each cycle) is injected, ten minutes is given for dissociation, and 10 uL of 10 mM glycine hydrochloride, pH 1.5 is used for regeneration. Association and dissociation rates for each cycle are evaluated using a “1:1 with mass transfer” binding model in the BIAevaluation software.

mouse RANKL = biological target: T3, mouse RANKL (mouse, UniProt O35235 158-316, limits assumed); assay: SPR (BIAcore 2000), antibody captured on Protein A, RANKL as analyte, 25 C; mouse RANKL
T3 construct: Construct not described; also called murine RANKL
T3 sequence (looked up): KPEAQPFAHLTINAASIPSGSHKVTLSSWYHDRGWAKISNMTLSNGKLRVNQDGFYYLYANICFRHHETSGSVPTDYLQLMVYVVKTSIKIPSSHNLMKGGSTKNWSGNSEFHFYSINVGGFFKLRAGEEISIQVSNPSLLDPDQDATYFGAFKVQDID

- Kd (rat RANKL): 0.0344 nM
- IC50, neutralization of human RANKL induced NF-kB driven luciferase luminescence in HEK293 cells expressing human RANK (human RANKL [1]): 0.069 nM
- Kd (human RANKL [2]): 0.00282 nM
- Kd (mouse RANKL): 0.00664 nM
B1: exemplified antibody of Example 1 (antibody, human IgG4 S228P, kappa, F234A L235A, V domains shown)
VH: QVQLVQSGAEVKKPGSSVKVSCKASGYAFTNYYIEWVRQAPGQGLEWMGVINPGWGDTNYNEKFKGRVTITADKSTSTAYMELSSLRSEDTAVYYCARRDTAHGYYALDPWGQGTTVTVSS
VL: DIQMTQSPSSLSASVGDRVTITCKASQNVGTNVAWYQQKPGKAPKLLIYSASYRYSGVPSRFSGSGSGTDFTLTISSLQPEDFATYYCQQYWDYPLTFGGGTKVEIKR
notes: also called the antibody; anti-RANKL antibody
